Experimental data reported in patent US20240247077A1 (CLEMSON UNIVERSITY RESEARCH FOUNDATION, published 2024).

Experiments:
rat CYP1A = target: T1, rat CYP1A (rat (R. norvegicus), UniProt P00185 2-524); assay: immunoblot, rat liver S9 fractions
T1 construct: Endogenous protein in liver S9 fraction, immunoblot; also called Rat liver S9 fraction, Arochlor-1254-induced
T1 sequence (looked up): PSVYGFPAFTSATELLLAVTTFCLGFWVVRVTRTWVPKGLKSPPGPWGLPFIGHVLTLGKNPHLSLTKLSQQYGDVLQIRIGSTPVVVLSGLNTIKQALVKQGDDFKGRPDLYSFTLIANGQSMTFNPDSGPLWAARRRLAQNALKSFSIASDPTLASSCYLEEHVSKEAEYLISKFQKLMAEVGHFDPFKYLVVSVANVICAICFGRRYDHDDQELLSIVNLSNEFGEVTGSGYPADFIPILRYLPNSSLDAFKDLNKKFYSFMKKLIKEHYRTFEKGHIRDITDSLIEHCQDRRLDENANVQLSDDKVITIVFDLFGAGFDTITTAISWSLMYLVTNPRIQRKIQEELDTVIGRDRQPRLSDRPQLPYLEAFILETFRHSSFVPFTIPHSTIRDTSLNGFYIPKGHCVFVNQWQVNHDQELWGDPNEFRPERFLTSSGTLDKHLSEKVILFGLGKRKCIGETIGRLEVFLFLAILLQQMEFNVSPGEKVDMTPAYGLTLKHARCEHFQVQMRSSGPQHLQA
Protocol: Lysate protein concentration for each cell line, rat S9 fractions, and rainbow trout microsomes were matched between treated and controls, then boiled in reducing sample buffer for 7 min. Forty micrograms of each sample was then subjected to SDS-PAGE using 10-lane, 50 μL well capacity 4-20% pre-cast gels (Biorad, Richmond, CA, USA) and immunoblotting using standard procedures incorporating PDVF membranes. Immunoblots were blocked overnight with 10% horse serum (Gibco) in 0.01 M phosphate buffered saline (PBS) containing 0.05% tween twenty (PBS-T). Membranes were washed once for 10 min with PBS-T, then probed for 2 h at room temperature (RT) with mAbs as confluent supernatants diluted 1:10 in PBS-T containing a final nominal concentration of 3 ug/mL antibody. […] After 3×washes with PBS-T, membranes were incubated with NBT-BCIP (Fisher Scientific, Pittsburgh, PA, USA) as the AP substrate and activity was visualized as dark blue banding of CYP1A at the expected size of approximately 55 kDa.

mouse CYP1A = target: T2, mouse CYP1A (mouse (M. musculus), UniProt P00184 1-524); assay: IHC, liver of PCB-126 treated mouse
T2 construct: Endogenous protein in Hepa1c1c7 cell lysate (immunoblot) and fixed liver (IHC); also called HEPA1C1C7; mouse hepatoma cell line CYP1A
T2 sequence (looked up): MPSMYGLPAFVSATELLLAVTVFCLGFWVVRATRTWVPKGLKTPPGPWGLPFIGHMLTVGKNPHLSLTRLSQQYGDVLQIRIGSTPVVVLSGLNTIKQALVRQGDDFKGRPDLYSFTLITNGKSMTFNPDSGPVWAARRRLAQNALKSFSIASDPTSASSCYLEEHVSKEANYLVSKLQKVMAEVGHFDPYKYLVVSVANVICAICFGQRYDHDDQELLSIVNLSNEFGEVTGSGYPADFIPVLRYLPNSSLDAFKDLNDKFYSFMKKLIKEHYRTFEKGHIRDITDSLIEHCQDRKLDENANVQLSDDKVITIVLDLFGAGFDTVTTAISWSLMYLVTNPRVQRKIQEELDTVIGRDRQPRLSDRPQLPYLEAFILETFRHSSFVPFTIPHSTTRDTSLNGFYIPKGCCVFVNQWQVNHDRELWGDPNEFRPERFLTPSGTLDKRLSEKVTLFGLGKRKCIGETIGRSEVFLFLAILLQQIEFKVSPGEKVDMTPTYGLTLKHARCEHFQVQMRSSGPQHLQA
Protocol: Subsequently, slides were immersed in pH 9 Tris-EDTA buffer while heating by microwave on 100% power for 5 min followed by cooling for 5 min, followed by a final 5 min 100% power, then a final 20 min cool-down period in the container at room temperature. After antigen retrieval, tissues on slides were encircled with a Liquid Blocker Super mini pen to isolate tissue slices. Thus, each slide was divided into sections where one section can act as a reagent control by withholding a primary antibody. Additional screening assays included isotype controls. Once slides were divided, all sections were treated to quench endogenous peroxidase activity for 30 min using 3% H₂O₂ in water. […] After blocking, avidin-then biotin-blocking steps (15 min each) were conducted to allow specificity to target molecules only for the avidin-biotin binding. Next, the antibody, as a hybridoma supernatant diluted 1:10 in PBS with 0.5% FBS, was added dropwise to the slides and incubated overnight at 4° C. or for 2 h at RT. After incubation, the slides were washed prior to addition of the secondary (biotinylated) antibody for a 30 min incubation at RT. After washing, Vectastain ABC reagent was added for 30 min prior to staining.

[1] = target: T3, recombinant human CYP1A1 expressed in HEK cells (human (H. sapiens), UniProt P04798 1-512); assay: immunoblot, HEK cell lysate with recombinant human CYP1A1
T3 construct: Bought over-expression lysate; also called OriGene LC400170
T3 sequence (looked up): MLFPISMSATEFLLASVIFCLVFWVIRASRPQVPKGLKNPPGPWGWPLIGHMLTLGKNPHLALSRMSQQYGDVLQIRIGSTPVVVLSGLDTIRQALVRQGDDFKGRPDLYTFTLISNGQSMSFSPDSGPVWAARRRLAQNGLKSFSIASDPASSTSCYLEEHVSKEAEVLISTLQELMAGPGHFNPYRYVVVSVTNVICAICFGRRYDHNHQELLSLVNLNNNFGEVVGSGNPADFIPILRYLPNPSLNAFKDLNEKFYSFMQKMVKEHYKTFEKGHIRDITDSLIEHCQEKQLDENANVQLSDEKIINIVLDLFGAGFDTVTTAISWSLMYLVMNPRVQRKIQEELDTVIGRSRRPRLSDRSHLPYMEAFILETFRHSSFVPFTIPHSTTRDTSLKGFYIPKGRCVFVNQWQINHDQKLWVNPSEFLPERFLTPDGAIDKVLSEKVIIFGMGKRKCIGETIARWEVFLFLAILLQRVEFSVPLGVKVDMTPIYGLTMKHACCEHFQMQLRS
Protocol: HEK cells were grown in media only as a cell-specific source of control cell lysate for comparison with over-expressed recombinant CYP1A1 in HEK cell lysates from the supplier.
Media was then removed from cells, replaced with 0.25% trypsin, and incubated until cells lifted from attachment. Cells were then pelleted by centrifugation to obtain a dry pellet, covered with ice-cold 300-400 μL RIPA buffer (Thermo Fisher, Waltham, MA, USA) supplemented with 2×HALT protease inhibitor cocktail (Pierce), followed by resuspension using a vortex device and placement on ice for 20 min. Suspensions were then sonicated, transferred to 1.5 mL tubes, and centrifuged 12,000×g for 20 min. Overlying supernatants were removed and transferred to clean tubes and the protein content quantified. Lysate protein concentration for each cell line, rat S9 fractions, and rainbow trout microsomes were matched between treated and controls, then boiled in reducing sample buffer for 7 min. Forty micrograms of each sample was then subjected to SDS-PAGE using 10-lane, 50 μL well capacity 4-20% pre-cast gels (Biorad, Richmond, CA, USA) and immunoblotting using standard procedures incorporating PDVF membranes. Immunoblots were blocked overnight with 10% horse serum (Gibco) in 0.01 M phosphate buffered saline (PBS) containing 0.05% tween twenty (PBS-T). […]

binding result (rat CYP1A): binds
binding result (mouse CYP1A): binds
binding result [1]: binds
B1: mAb CRC4 (antibody, mouse IgG1, kappa, V domains shown)
VH: QVTLKESGPGILQPSQTLSLTCSFSGFSLSTSGMGVNWIRKPSGKGLEWLAHIFWDDDKRYNPSLKSRLTISKDTSRNQVFLMITSVDTADTATYYCASLAMDYWGQGTSVTVSS
VL: DIVMTQGASSVTVTPGESVSISCRSSKSLLHSNGRTFLYWFLQRPGQSPQLLIYRMSNLASGVPDRVSGSGSGTAFTLRISRVEAEDVGVYYCMQHLEYPFTFGGGTRLELKR
notes: Mouse IgG1 kappa from a hybridoma, used as confluent hybridoma supernatant (nominally 3 ug/mL after 1:10 dilution); also called monoclonal antibody CRC4; CRC4_1
